In patent US20180222987A1 one finds RU, % FITC positive cells and Kd data, which are given here for 25 molecules.

In assay [1] the target is Macaca fascicularis CD3ε/δ-Fc fusion heterodimer (Macaca fascicularis) (UniProt Q95LI8). Kind of assay: SPR single point, hybridoma supernatant.
For assay [2], the target named is human CD123 on cells (human) (UniProt P26951). In words: flow cytometry, TF-1 cells, 3 µg antibody.
For assay [3] the target is unchanged. Kind of assay: flow cytometry, THP-1 cells, 3 µg antibody.
Assay [4] deals with Macaca fascicularis CD3ε/δ-Fc fusion heterodimer (Macaca fascicularis) (UniProt Q95LI8). Kind of assay: SPR Biacore, Fab; unit inferred.

Changes are numbered by the printed parent chain.

Sequence of Macaca fascicularis CD3ε/δ-Fc fusion heterodimer (Macaca fascicularis) (chain, as listed by the source mutant, chain 1 of 2): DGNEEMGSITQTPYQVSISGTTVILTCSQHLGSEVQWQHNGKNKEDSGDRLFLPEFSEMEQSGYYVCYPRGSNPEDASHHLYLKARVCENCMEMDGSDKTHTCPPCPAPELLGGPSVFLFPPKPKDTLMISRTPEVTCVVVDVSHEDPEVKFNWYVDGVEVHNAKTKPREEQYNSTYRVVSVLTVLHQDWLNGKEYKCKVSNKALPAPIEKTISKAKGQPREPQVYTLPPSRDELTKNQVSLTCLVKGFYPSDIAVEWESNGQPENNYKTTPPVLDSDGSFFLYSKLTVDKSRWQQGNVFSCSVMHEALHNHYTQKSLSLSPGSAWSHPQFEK
Sequence of Macaca fascicularis CD3ε/δ-Fc fusion heterodimer (Macaca fascicularis) (Q95LI8 22-105, stated change not applied, chain 2 of 2): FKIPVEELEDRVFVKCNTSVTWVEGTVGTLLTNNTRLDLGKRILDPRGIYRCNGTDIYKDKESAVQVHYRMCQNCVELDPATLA
Sequence of human CD123 on cells (human) (P26951 19-378): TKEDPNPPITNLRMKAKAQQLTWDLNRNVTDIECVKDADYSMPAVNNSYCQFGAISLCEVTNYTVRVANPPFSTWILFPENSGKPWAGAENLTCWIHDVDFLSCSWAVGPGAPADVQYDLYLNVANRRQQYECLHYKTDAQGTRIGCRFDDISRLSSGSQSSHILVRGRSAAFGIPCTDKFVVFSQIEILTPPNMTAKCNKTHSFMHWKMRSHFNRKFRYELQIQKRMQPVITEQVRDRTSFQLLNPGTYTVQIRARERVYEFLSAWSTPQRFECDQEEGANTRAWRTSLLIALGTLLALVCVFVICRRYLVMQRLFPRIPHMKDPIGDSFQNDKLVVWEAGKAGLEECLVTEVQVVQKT

B1: 12D2-E5 anti-CD3 antibody (antibody, V domains shown)
VH: EVKLVESGGGLVQPGRSLRLSCAASGFNFYAYWMGWVRQAPGKGLEWIGEIKKDGTTINYTPSLKDRFTISRDNAQNTLYLQMTKLGSEDTALYYCAREERDGYFDYWGQGVMVTVSS
VL: QFVLTQPNSVSTNLGSTVKLSCKRSTGNIGSNYVNWYQQHEGRSPTTMIYRDDKRPDGVPDRFSGSIDRSSNSALLTINNVQTEDEADYFCQSYSSGIVFGGGTKLTVL
B1 had an RU at 25 nM in assay [1] of 5 RU.

B2: CODV-Fab BFX-2F8-D6 × CD3 (bispecific antibody, V domains shown, not shown: a dimerising Fc or GST; small tags and cut ends)
VH: QVQLKESGPGLVQPSQTLSLTCTVSGFSLTSYGVSWVRQPPGKGLEWIATISSAGSTYYDLVLKSRLSITRDTSKSQVFLKVHSLQTEDTAIYLCARDAPVFNYGSYNAMDSWGQGTSVTVSS
VL: DIQMTQSPSFLSATVGDRVTINCKASQNINKYLNWYQQKLGEAPKRLIYNTNSLQTGIPSRFSGSGSGTDYTLTISSLQPEDVATYFCLQHKSGLTFGSGTKLEIK
Regarding B2, the values for the % FITC positive cells in assay [2] and in assay [3] were 9.3% and 24%, respectively.

B3: 18H11-F10 anti-CD3 antibody (antibody, V domains shown)
VH: EVQLVESGGGLVQPGRSLKLSCAASGFIFSDYYMAWVRQAPKKGLEWVATISISGSRTYYPDSVKGRFTVSRDNAKSSLYLQMNSLKSEDTATYYCATNNPGGWFVYWGQGTLVTVSS
VL: NIQMTQSPSLLSASVGDRVTLSCKAGQNINNDLAWYQQKLGEAPRLLIYNANSLQTGIPSRFSGSGSGADFTLTISSLQPEDVATYFCQQYSSGDTFGAGTKLELK
The molecule B3 returned an RU at 25 nM in assay [1] of 55 RU.

B4: CODV-Fab BFX-9F6-G3 × CD3 (bispecific antibody, part only; not given: CD3 arm, linkers, constant domains, tag, V domains shown, not shown: another chain or arm of the molecule; a dimerising Fc or GST; small tags and cut ends)
VH: QVQLQESGPTLVKPGDSVKMSCKASGYTFTDYIIHWVKQSHGKSLEWIGYINPYSDGTNYNEKFKSKATLTVDKSTSTAYMEFSRLTSEDSAIYFCALNYGSYYAMDAWGQGTSVTVSS
VL: DIQMTQSPASLSASLGETVTIECRPSEDIHSNVAWYQQKPGNSPQLLIYDASNLADGVPSRFSGSGSGTQYSLKINSLQSEDVASYFCHQYNIYPYTFGSGTKLELK
Turning to B4, the % FITC positive cells stood at 60.7% in assay [2] and 99.7% in assay [3].

B5: CODV-Fab BFX-9B8-G6 × CD3 (bispecific antibody, part only; not given: CD3 arm, linkers, constant domains, tag, V domains shown, not shown: another chain or arm of the molecule; a dimerising Fc or GST; small tags and cut ends)
VH: EVKLQESGPSLVQSSQTLSLTCTVSGFSLTSYHIHWVRQPPGKGLEWMGVMWSDGDTSYSSALKSRLSISRDTSQSQVFLKMNSLQTEDTATYYCARGDYSSYIYLWFAYWGQGTLVTVSS
VL: DIVMTQSPSSLAVSAGETVTINCKSSQSFLSSGDERNYVAWYQHKPGQSPKLLIYWASTRHSGVPDRFIGSGSGTDFTLTISSVQAEDLAIYYCQQYYDTPLTFGSGTKLEIK
Regarding B5, the % FITC positive cells in assay [2] worked out at 31.1%; in assay [3] it was 48.8%.

B6: CODV-Fab BFX-9D7-C8 × CD3 (bispecific antibody, part only; not given: CD3 arm, linkers, constant domains, tag, V domains shown, not shown: another chain or arm of the molecule; a dimerising Fc or GST; small tags and cut ends)
VH: B5 VH with P40T, S60N, D99Y, I104L
VL: B5 VL with A15E, E35G, R36K, H44Y, H61Q, S83T
For B6, the % FITC positive cells in assay [2] came to 50.2%; in assay [3], 88.7%.

B7: 18G9-H11 anti-CD3 antibody (antibody, V domains shown)
VH: EVQLVETGGSLVQPGKSLKLTCATSGFTFSNAWIQWVRQSPEKQLEWVAQIKAKSNNYATYYAESVKGRFTISRDDSKSSVYLQMNSLKEEDTALYYCTWRHYYSSHTMDAWGQGTLVTVSS
VL: DVVMTQTPVSLSVSLGGQVSISCRSSQSLVHNNGNTYLSWYLQKPGQSPQLLIYKVSNRFSGISDRFSGSGSGTDFTLKISRVAPTDLGVYYCGQGSQYPFTFGAGTKLELK
Molecule B7 registered an RU at 25 nM in assay [1] of -7 RU.

B8: humanized 4B4 Fab 4B4_1 (VL1a / VH1B) (Fab, V domains shown)
VH: QVQLVETGGGLVKPGQSLKLTCATSGFTFSNAWMHWVRQSPEKGLEWVAQIKARSNNYATYYAVSVKGRFTISRDDSKSTIYLQMNSLTPEDTAIYYCRGTYYASKPFDYWGQGVMVTVSS
VL: DVVMTQTPVSLSVSVGGRVSISCRSSQSLVHDNGNTYLSWSLQKPGKSPKVLIYKVSNRFSGVSSRFTGSGSGTDFTLKISSVQPDDLGVYYCGQGTQYPFTFGSGTKLEIK
For the molecule B8, in assay [4], the Kd worked out at 3.13 nM.

B9: humanized 4B4 Fab 4B4_17 (VL2A / VH2B) (Fab, V domains shown)
VH: B8 VH with Q1E, K13Q, Q16G, V64D, T89R, P90A
VL: B8 VL with V15P, R18P, K47Q, K50Q, S65D, S82R, Q84E
Turning to B9, in assay [4], the Kd was 9.07 nM.

B10: humanized 4B4 Fab 4B4_7 (VL1b / VH1A) (Fab, V domains shown)
VH: B8 VH with V64E
VL: B8 VL with G34A
The molecule B10 showed a Kd in assay [4] of 7.28 nM.

B11: humanized 4B4 Fab 4B4_6 (VL1a / VH1A) (Fab, V domains shown)
VH: B8 VH with V64E
VL: B8 VL
Regarding B11, the dissociation constant (Kd) in assay [4] amounted to 1.19 nM.

B12: humanized 4B4 Fab 4B4_2 (VL1b / VH1B) (Fab, V domains shown)
VH: B8 VH
VL: B8 VL with G34A
On to B12, for which, in assay [4], the Kd was 7.57 nM.

B13: humanized 4B4 Fab 4B4_9 (VL2B / VH2A) (Fab, V domains shown)
VH: B8 VH with Q1E, K13Q, Q16G, V64E, T89R, P90A
VL: B8 VL with V15P, R18P, G34A, K47Q, K50Q, S65D, S82R, Q84E
With B13, in assay [4], the Kd was 12.1 nM.

B14: 10E6-G6 anti-CD3 antibody (antibody, V domains shown)
VH: EVQLVETGGGLVQSGKSLKLTCATSGFTVTNAWMHWVRQSPEKQLEWVAQIKAKSNNYETYYAESVKGRFTISRDDSKSSVYLQMNSLKEEDTAIYYCRGTQYGYNPFDYWGQGVMVTVSS
VL: DVVMTQSPVSLSVSLGGQVSISCRSSQSLVHNNGYTYLSWYLQKPGQSPQVFIYKVSNRFSGISDRFSGSGSGTDFTLKISRIEPDDLGVYYCGQGTHYPFTFGSGTKLEIK
With B14, the RU at 25 nM in assay [1] was found to be 0 RU.

B15: 20E5-F10 anti-CD3 antibody (antibody, V domains shown)
VH: EVQLVETGENLVQPGKSLRLTCATSGFSFSNAWMHWIRQSPEKQLEWVAQIKDKSNNYATYYAESVNGRFTISRDDSKSSIYLHMDNLKEEDSAIYYCRYVHYGVRFFYTMDVWGQGTSVTVSS
VL: B14 VL with S7T, G17D, S25P, Y35N, Q50H, V51P, F52L, I83V, H98Q
For B15, the RU at 25 nM in assay [1] is 8 RU.

B16: 11F3-B9 anti-CD3 antibody (antibody, V domains shown)
VH: EVQLVETGGSLVQPGKSLTLTCATSGFTFSNAWMHWVRQSPEKQLEWVAQIKAKSNNYATYYAESVKGRFTISRDDSKRSVYLQMNSLKEEDTAIYYCRYVNYGLAPMDVWGQGTSVTVSS
VL: B7 VL with N32D, I63F, A84E, T86D, S97T
B16 returned an RU at 25 nM in assay [1] of 17 RU.

B17: 5B1-G2 anti-CD3 antibody (antibody, V domains shown)
VH: EVQVVETGGSLVQPGKSLKLTCATSGFSFSNAWMHWVRQSPEKQLEWVAQIKDKANNYATYYAESVKGRFTISRDDSKGSIYLQMNSLKEEDTAVYYCRGLYYGLFPSDYWGQGVMVTVSS
VL: B14 VL with S7T, Y35N, Q43L, V51L, F52L, S70G, I83L, V90I, H98Q
In the case of B17, the RU at 25 nM in assay [1] was 0.5 RU.

B18: 12G3-E8 anti-CD3 antibody (antibody, V domains shown)
VH: EVRVVETGGSLVQPGKSLKLTCATSGFTFSLAWMHWVRQSPEKKLEWVAQIKDKANNYATYYAESVKGRFTISRDDSKRSVYLQMNRLKEEDTAIYYCRGVYYGFSMTPFDYWGQGVMVTVSS
VL: B7 VL with V3A, L51V, T74A, A84E, T86D, S97T
In turn, B18 yielded an RU at 25 nM in assay [1] of 17 RU.

B19: 16F8-A7 anti-CD3 antibody (antibody, V domains shown)
VH: VETGGNLVQPGKSLKLTCATSGFTFSNAWMHWVRQSPEKQLEWVAQIKAKSNNYATYYAESVKGRFTISRDDSKSSVYLQMNSLKEEDTAIYYCRYVNYGLAPMDVWGQGTSVTVSS
VL: B7 VL with I63F, A84E, T86D, S97T
As for B19, the RU at 25 nM in assay [1] stood at 22.5 RU.

B20: 3H6-D2 anti-CD3 antibody (antibody, V domains shown)
VH: EVQLVETGGRLVQPGKSLKLTCATSGFTFSNAWMHWVRQSPEKQLEWVAQIKDKSNNYATYYAESVKGRFTISRDDSKSIIYLQMNSLKEEDTAIYYCRALTYYGYKRDAMDGWGHGTSVTVSS
VL: B7 VL with A84E, T86D, S97T
In assay [1], B20 gave an RU at 25 nM of 7 RU.

B21: 10F4-C10 anti-CD3 antibody (antibody, V domains shown)
VH: EVQLVETGGSLVQPGKSLKITCATSGFTFSNAWMHWVRQSPEKQLEWVAQIKAKSNNYATYYAESVKGRFTISRDDSKSSIYLQMNSLKEEDTAIYYCRAVNYGNYPLDYWGQGVMVTVSS
VL: B7 VL with Y41C, A84E, T86D, S97T
In assay [1], B21 had an RU at 25 nM of 27 RU.

B22: humanized 4B4 Fab 4B4_5 (VL2C / VH6D) (Fab, V domains shown)
VH: QVQLVESGGGVVQPGRSLRLSCATSGFTFSNAWMHWVRQAPGKQLEWVAQIKARSNNYATYYADSVKGRFTISRDDSKSTIYLQMNSLRAEDTAVYYCRGTYYASKPFDYWGQGTLVTVSS
VL: DIVMTQTPLSLSVTPGQPASISCKSSQSLVHDNGNTYLSWSLQKPGQSPQVLIYKVSNRFSGVPDRFSGSGSGTDFTLKISRVEAEDVGVYYCGQGTQYPFTFGSGTKLEIK
B22 had a Kd in assay [4] of 16.6 nM.

B23: humanized 4B4 Fab 4B4_20 (VL2F / VH6C) (Fab, V domains shown)
VH: B22 VH with T24A, I81L
VL: B22 VL with G34A, S41Y, V51S, L109V
For B23, the Kd in assay [4] turned out to be 43.4 nM.

B24: humanized 4B4 Fab 4B4_10 (VL1_CM2 / VH6_BM2) (Fab, V domains shown)
VH: B22 VH with G10R, S21T, T24A, D64E, L116T
VL: B22 VL with I2V, T7S, P15L, A19V, K24R, K44R, Q50R
For B24, the Kd in assay [4] was 8.94 nM. This Kd lies about 4.9-fold lower than the previous one.

B25: humanized 4B4 Fab 4B4_11 (VL1_CM3 / VH6_BM2) (Fab, V domains shown)
VH: B22 VH with G10R, S21T, T24A, D64E, L116T
VL: B22 VL with I2V, T7S, P15L, A19V, K24R, G34A, K44R, Q50R
On to B25, for which, in assay [4], the Kd came out at 20.4 nM.
